Experimental data taken from patent EP1230350B1, “SITE-DIRECTED MUTAGENESIS OF ESCHERICHIA COLI PHYTASE” (CORNELL RESEARCH FOUNDATION, INC., priority 1999, dated 2001).
Where a chain is given by its changes, count along the chain named. Numbers in names are those of the source. Marks after values point to notes of the source that are not given here.

Columns and labels:
Assay in all cases: Enzyme kinetics of acid phosphatase/phytase (pNPP and sodium phytate as substrates)
[1] = biological target: T1, Escherichia coli acid phosphatase/phytase (appA) Mutant U (construct E2P2P3K2: C200N, D207N, S211N), SEQ. ID. No. 3, expressed in Pichia pastoris (Escherichia coli, UniProt P07102, C200N/D207N/S211N); assay type: biochemical
T1 construct: The coding region starts at the codon 20 and ends at the codon 432; alpha-factor secretion leader of vector pPICZαA (own knowledge of the vector); made in house; host or cells: Pichia pastoris X33
T1 sequence (P07102 20-432 C200N/D207N/S211N): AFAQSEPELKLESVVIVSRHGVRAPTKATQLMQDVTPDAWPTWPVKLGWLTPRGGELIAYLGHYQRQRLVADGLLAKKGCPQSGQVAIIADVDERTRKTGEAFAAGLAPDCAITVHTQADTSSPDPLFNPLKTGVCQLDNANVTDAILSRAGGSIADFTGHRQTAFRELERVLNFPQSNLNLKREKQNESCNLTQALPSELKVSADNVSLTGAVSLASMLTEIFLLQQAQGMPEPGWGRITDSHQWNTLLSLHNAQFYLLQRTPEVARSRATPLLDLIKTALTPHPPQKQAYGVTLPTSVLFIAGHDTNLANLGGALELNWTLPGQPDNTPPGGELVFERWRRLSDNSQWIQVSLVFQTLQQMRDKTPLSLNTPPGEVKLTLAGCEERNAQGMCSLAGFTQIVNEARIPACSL
Description: The expressed r-AppA and mutant enzymes in the medium supernatant were subjected to a two-step ammonium sulfate precipitation (25% and 75%) as previously described (Rodriguez, E. et al., Biochem. Biophys. Res. Commun. 257:117-23 (1999)). The suspension of the first round was centrifuged at 4°C, 25,000 x g for 20 min. The pellet of the second round was suspended in 10 ml and dialyzed overnight against 25 mM Tris-HCl, pH 7. After dialysis, the protein extract was loaded onto a DEAE (diethylaminoethyl)-Sepharose column (Sigma, St. Louis, MO) equilibrated with 25 mM Tris-HCl, pH 7. The bound protein was eluted with 1 M NaCl in 25 mM Tris-CH1, pH 7. […] Phytase activity was measured using sodium phytate as the substrate (Rodriguez, E. et al., Biochem. Biophys. Res. Commun. 257:117-23 (1999); Piddington, C.S. et al., Gene 133:55-62 (1993)). […] Free inorganic phosphorus was measured at 820 nm after 0.2 ml of the sample was mixed with 1.8 ml of H2O and 2 ml of a solution containing 0.6 M H2SO4, 2% ascorbic acid, and 0.5% ammonium molybdate, followed by incubation for 20 min at 50°C. […] The released p-nitrophenol was measured at 405 nm after 0.1 ml of the sample was mixed with 0.9 ml of 1 M NaOH and incubated for 10 min. […] After the samples were cooled on ice for 30 min, their remaining phytase activies were measured as described above. […]

[2] = substrate: O=[N+]([O-])c1ccc(OP(=O)(O)O)cc1; assay type: biochemical, Escherichia coli; details: 0.25 M glycine-HCl, pH 2.5, 37°C, Lineweaver-Burk plot
Description: (§1) The expressed r-AppA and mutant enzymes in the medium supernatant were subjected to a two-step ammonium sulfate precipitation (25% and 75%) as previously described (Rodriguez, E. et al., Biochem. Biophys. Res. Commun. 257:117-23 (1999)). The suspension of the first round was centrifuged at 4°C, 25,000 x g for 20 min. The pellet of the second round was suspended in 10 ml and dialyzed overnight against 25 mM Tris-HCl, pH 7. After dialysis, the protein extract was loaded onto a DEAE (diethylaminoethyl)-Sepharose column (Sigma, St. Louis, MO) equilibrated with 25 mM Tris-HCl, pH 7. The bound protein was eluted with 1 M NaCl in 25 mM Tris-CH1, pH 7. […] Phytase activity was measured using sodium phytate as the substrate (Rodriguez, E. et al., Biochem. Biophys. Res. Commun. 257:117-23 (1999); Piddington, C.S. et al., Gene 133:55-62 (1993)). The enzyme was diluted in 0.25 M glycine-HCl, pH 2.5, and an equal volume of substrate solution containing 11 mM sodium phytate (Sigma) was added. After incubation of the sample for 15 min at 37°C, the reaction was stopped by addition of an equal volume of 15% trichloroacetic acid. Free inorganic phosphorus was measured at 820 nm after 0.2 ml of the sample was mixed with 1.8 ml of H2O and 2 ml of a solution containing 0.6 M H2SO4, 2% ascorbic acid, and 0.5% ammonium molybdate, followed by incubation for 20 min at 50°C. One phytase unit was defined as the amount of activity that releases 1 µmol of inorganic phosphorus from sodium phytate per minute at 37°C. The final concentrations of sodium phytate used for the enzyme kinetics were: 0.1, 0.25, 0.5, 0.75, 1, 2.5, 10, and 25 mM. Acid phosphatase activity was assayed using pNPP (Sigma) at a final concentration of 25 mM (Smith, R. et al., Protein Engineerine 5:35-41 (1992)). To 50 µl of enzyme (40 nmol), 850 µl of 250 mM glycine-HCl, pH 2.5, were added. After 5 min of incubation at 37°C, 100 µl of pNPP was added. The released p-nitrophenol was measured at 405 nm after 0.1 ml of the sample was mixed with 0.9 ml of 1 M NaOH and incubated for 10 min. The final concentrations ofpNPP used for the enzyme kinetics were: 0.1, 0.2, 0.75, 1, 2.5, 10, and 25 mM. One unit of acid phosphatase/phytase activity was defined as the amount of enzyme catalyzing the formation of 1 µmol of p-nitrophenol per minute. Before the thermostability assay, the enzyme (2 mg/ml) was diluted 1:400 in 0.2 M glycine-HCl, pH 2.5. The diluted samples were incubated for 15 min at 25, 55, 80, and 90°C. After the samples were cooled on ice for 30 min, their remaining phytase activies were measured as described above. Deglycosylation of purified enzymes was done by incubating 100 µg of total protein with 0.5 IU endoglycosidase Hf (Endo Hf) for 4 h at 37°C according to the manufacturer's instructions (New England Biolabs, Beverly, MA). Sodium dodecyl sulfate-polyacrylamide gel electrophoresis (SDS-PAGE), 15% (w/v) gel was performed as previously described (Laenunli, U.K., Nature 227:680-85 (1970)). Protein concentrations were determined using the Lowry method (Lowry, O.H. et al., J. Biol. Chem. 193:265-75 (1951)).
(§2) The Km value for pNPP (p-nitrophenyl phosphate) was reduced by one-half and the one for sodium phytate by 70% with Mutant U, versus r-AppA (P < 0.05) (Table 4).

[3] = substrate: O=P(O)(O)OC1C(OP(=O)(O)O)C(OP(=O)(O)O)C(OP(=O)(O)O)C(OP(=O)(O)O)C1OP(=O)(O)O; assay type: biochemical, Escherichia coli; details: 0.25 M glycine-HCl, pH 2.5, 37°C, Lineweaver-Burk plot
Description: as §1, §2

O=P(O)(O)O[C@H]1[C@H](OP(=O)(O)O)[C@@H](OP(=O)(O)O)[C@H](OP(=O)(O)O)[C@@H](OP(=O)(O)O)[C@H]1OP(=O)(O)O [Na-Phytate, sodium phytate]
increase in apparent catalytic efficiency kcat/Km for sodium phytate than that of r-AppA ([1]; Mutant U versus r-AppA): 5.2 fold
Km value for sodium phytate reduced, versus r-AppA ([1]; Mutant U versus r-AppA (P < 0.05)): 70%

B1: Escherichia coli acid phosphatase/phytase (appA) Mutant Y (construct E2A1P2P3K2: A131N, V134N, C200N, D207N, S211N), expressed in Pichia pastoris (Escherichia … (protein)
chain: T1 sequence (P07102 20-432 C200N/D207N/S211N) with A112N, V115N
notes: The coding region starts at the codon 20 and ends at the codon 432; alpha-factor secretion leader of vector pPICZαA (own knowledge of the vector); made in house; host or cells: Pichia pastoris X33
Km ([2]; other: Mutant Y): 3180 ± 390 µM
kcat ([2]; other: Mutant Y): 787 ± 6.7 min⁻¹
kcat/Km ([2]; other: Mutant Y): (2.5 ± 0.17) x 10^5 min^-1 M^-1
Km ([3]; other: Mutant Y): 2030 ± 190 µM
kcat ([3]; other: Mutant Y): 3431 ± 41^* min^-1
kcat/Km ([3]; other: Mutant Y): (1.69 ± 0.21) x 10^6* min^-1 M^-1

B2: Escherichia coli acid phosphatase/phytase (appA) Mutant U (construct E2P2P3K2: C200N, D207N, S211N), SEQ. ID. No. 3, expressed in Pichia pastoris (Escherichia … (protein)
chain: T1 sequence (P07102 20-432 C200N/D207N/S211N)
notes: as for B1
Km ([2]; other: Mutant U): 1860 ± 35000 µM
kcat ([2]; other: Mutant U): 1073 ± 13^* min^-1
kcat/Km ([2]; other: Mutant U): (5.8 ± 0.37) x 10^5* min^-1 M^-1
Km ([3]; other: Mutant U): 580 ± 80 µM
kcat ([3]; other: Mutant U): 4003 ± 56^* min^-1
kcat/Km ([3]; other: Mutant U): (6.90 ± 0.70) x 10^6* min^-1 M^-1

B3: Escherichia coli acid phosphatase/phytase (appA), wild type r-AppA, SEQ. ID. No. 1, expressed in Pichia pastoris (Escherichia coli K-12) (protein)
chain: T1 sequence (P07102 20-432 C200N/D207N/S211N) with N181C, N188D, N192S
notes: as for B1
Km ([2]; other: r-AppA): 3660 ± 440 µM
kcat ([2]; other: r-AppA): 752 ± 7.9 min⁻¹
kcat/Km ([2]; other: r-AppA): (2.0 ± 0.18) x 10^5 min^-1 M^-1
Km ([3]; other: r-AppA): 1950 ± 250 µM
kcat ([3]; other: r-AppA): 2148 ± 33 min⁻¹
kcat/Km ([3]; other: r-AppA): (1.11 ± 0.13) x 10^6 min^-1 M^-1

B4: Escherichia coli acid phosphatase/phytase (appA) Mutant R (construct E2A1P3K2: A131N, V134N, D207N, S211N), expressed in Pichia pastoris (Escherichia coli … (protein)
chain: T1 sequence (P07102 20-432 C200N/D207N/S211N) with A112N, V115N, N181C
notes: as for B1
Km ([2]; other: Mutant R): 7870 ± 840 µM
kcat ([2]; other: Mutant R): 390 ± 5.9^* min^-1
kcat/Km ([2]; other: Mutant R): (0.5 ± 0.07) x 10^5* min^-1 M^-1
Km ([3]; other: Mutant R): 3070 ± 260 µM
kcat ([3]; other: Mutant R): 1657 ± 23^* min^-1
kcat/Km ([3]; other: Mutant R): (0.54 ± 0.09) x 10^6* min^-1 M^-1
